The record followed here is the supplement of paper PMC12042874.

± gives the uncertainty stated by the source.

This data set can be described thus: amyloid nucleation score (Sup35N fusion, yeast selection) (log enrichment); library NNK3; higher = more nucleation; inactive = no reads after selection. The essentials: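 Random libraries were run with three technical output replicates. In each, psi-negative yeast expressing Sup35N fused to peptides of 20 random codons were induced 24 hours with 100 μM copper sulfate and grown 7 days at 30°C on medium lacking adenine and uracil, and input and output plasmid inserts were Illumina-sequenced. The nucleation score is the DiMSum log enrichment of output over input reads, centred on the mode score of non-aggregating sequences, and sequences under 100 input reads were excluded.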
On to DIELLGKARGYSLEQG, for which the amyloid nucleation score result is “inactive”.

For the substance IFLCLSICMFRPFRMVLS, the amyloid nucleation score entry is “inactive”.

LCFNCMS: the amyloid nucleation score came out at 2.74 ± 0.076.

As for SNGNMLRSYVSTPCDRGKGS, the amyloid nucleation score result is “inactive”.

On to AGWIDAYRFYNELLLGLRDH, for which the amyloid nucleation score result was “inactive”.

Turning to WGFRWNKCLNLAQPWLMALS, the amyloid nucleation score entry is “inactive”.

Consider TKGFTSLSTIFFKVNKFD, for which the amyloid nucleation score result was “inactive”.

As to AASPQARGCILSCNVSRNQT, the amyloid nucleation score result is “inactive”.

With YSGCRVLLQWVEFSCRWIWY, the amyloid nucleation score entry is “inactive”.

TRWGCSSSSNFGCFDDKRRL: the amyloid nucleation score entry was “inactive”.

NRTWIGIIHLFGLYYGVCGG registered an amyloid nucleation score of 0.621 ± 0.2.

As for CSQNT, the amyloid nucleation score entry was “inactive”.

FLLMCLMRCTRMETRCISAC: the amyloid nucleation score entry is “inactive”.

On to PNEMGSSVMENNWTIHNFGM, for which the amyloid nucleation score result is “inactive”.

As to VNLPFNDKYHLVFIGMA, the amyloid nucleation score entry is “inactive”.

Consider TACRFVSSRRELRIEVLTWF, for which the amyloid nucleation score is -0.755 ± 1.8.

Turning to QSTIEKHDMPDRLFIVAAGS, the amyloid nucleation score result was “inactive”.

For DYTCACLRVRI, the amyloid nucleation score was -0.047 ± 0.98.

Turning to SSFYFCFMSCCYGLGFYLEI, the amyloid nucleation score entry is “inactive”.

In the case of FGLGQIRFSHIICLNLILSL, the amyloid nucleation score came to 2.29 ± 0.056.

FHYLMMTFIV: the amyloid nucleation score result was “inactive”.

As for VFLSIMSSFEWALYLL, the amyloid nucleation score entry is “inactive”.

As to WCPTGEYRKCYNMSFARW, the amyloid nucleation score entry is “inactive”.

For NVLQYYNRLGTSRCIRAAFL, the amyloid nucleation score result was “inactive”.

Substance GMDSIWHFDCNLS yielded an amyloid nucleation score of 0.094 ± 0.81.

FMMEACSSDKGEQSMGSWIE yielded an amyloid nucleation score of -0.32 ± 0.78.

Consider MCSGAAFMRRVC, for which the amyloid nucleation score entry is “inactive”.

As to HCSYEFNS, the amyloid nucleation score is -0.001 ± 0.4.

As for RWSHDMSCE, the amyloid nucleation score entry is “inactive”.

As to CASLCHSSGVCRD, the amyloid nucleation score result is “inactive”.

For the substance CSCIGWLRNGDVSCNVDRAS, the amyloid nucleation score entry was “inactive”.

On to RIFFGISVIQFLIRSYSVHR, for which the amyloid nucleation score result was “inactive”.

With RHRASGLFP, the amyloid nucleation score result is “inactive”.

In the case of WGGVGKKMKRQRTAGTSRSG, the amyloid nucleation score entry is “inactive”.

Regarding PFLLSFKGNMQADSPGC, the amyloid nucleation score result is “inactive”.

For the substance SCTELFTPKGR, the amyloid nucleation score result was “inactive”.

FTLLVMS: the amyloid nucleation score entry is “inactive”.

Consider AIGMMASRWNLWCITLFLLK, for which the amyloid nucleation score result is “inactive”.

As to CIREKLILIMTSRSIMLLKS, the amyloid nucleation score entry was “inactive”.

For CALCRYC, the amyloid nucleation score result was “inactive”.

Take RPAHVIICYNLSYCNKWLHS: the amyloid nucleation score came out at 2.04 ± 0.071.

For the substance SYCVRWNRIVDFVGSCRDHG, the amyloid nucleation score was 1.11 ± 0.11.

Consider RFNMSFYQSYITSHCLVR, for which the amyloid nucleation score entry was “inactive”.

For the substance RLNWASVRRFTLIGRSVRRS, the amyloid nucleation score result is “inactive”.

Substance YFLEGNFESRWGECRSARSW returned an amyloid nucleation score of 0.053 ± 0.52.

In the case of SSPRGCKSELPSGLGTYCRV, the amyloid nucleation score entry is “inactive”.

For the substance DYVWADLFCWASGSYLDGEC, the amyloid nucleation score entry was “inactive”.

As for FNVKVVSKSMFYFCSYMPIV, the amyloid nucleation score entry is “inactive”.

In the case of GLALNWLCG, the amyloid nucleation score was 0.026 ± 0.43.

With VKDGTLCWCRAPFRCCRMPI, the amyloid nucleation score was -0.426 ± 1.1.

The substance CSYYFQLNMVSKECPRS registered an amyloid nucleation score of 0.562 ± 0.14.

The substance SSSSIVLDGLTFWLINTVTT showed an amyloid nucleation score of 0.598 ± 0.21.

For the substance VKPLSRY, the amyloid nucleation score entry is “inactive”.

With LSSFLLFLAELCWVLKQRMC, the amyloid nucleation score entry was “inactive”.

In the case of DLLWLLFGLTSDLQFFIRYK, the amyloid nucleation score entry was “inactive”.

Regarding GEISWDC, the amyloid nucleation score worked out at 0.283 ± 0.3.

In turn, RCKSGLNSMGRRFRYRIQQP came in with an amyloid nucleation score of 0.809 ± 0.18.

In the case of IFIMKARSKFPRVPFFQEFP, the amyloid nucleation score turned out to be 1.23 ± 0.13.

The substance YGYSTSFSG came in with an amyloid nucleation score of 0.586 ± 0.28.

ACLQRVQVKIHLGFTQTSFV returned an amyloid nucleation score of 0.487 ± 0.36.

In the case of NACVNEWRPKCQVSWGGPSF, the amyloid nucleation score is -0.385 ± 0.93.

With HISWFIFLCGGSFDSVMLAN, the amyloid nucleation score entry is “inactive”.

With ALMCIHRLCPNIVPDQ, the amyloid nucleation score entry is “inactive”.

For the substance YPLASYGLMCGFETDYPGAA, the amyloid nucleation score entry was “inactive”.

On to RLSMPPRIFMPNHNCIDHAS, for which the amyloid nucleation score entry was “inactive”.

Take CDFTRESYTDNTAASIPMLM: the amyloid nucleation score result was “inactive”.

CPCMLMMFSVGLTSSSPILC came in with an amyloid nucleation score of 0.268 ± 0.44.

In turn, TAYVNSGVEIYGFSVTRNNS had an amyloid nucleation score of 1.48 ± 0.11.

Take GVPLQWSSHAWGFFCWKTPW: the amyloid nucleation score entry was “inactive”.

KLSGTLFFGSKGFVFPPYAF: the amyloid nucleation score entry is “inactive”.

Take HRGIVGCLAYMHMNRIVATT: the amyloid nucleation score entry is “inactive”.

For VVSAGIAFPWTGLS, the amyloid nucleation score entry is “inactive”.

On to QSQWFGIVFMLNIMRSRDFR, for which the amyloid nucleation score worked out at 0.645 ± 0.12.

In the case of SGLSDPPPLLE, the amyloid nucleation score entry was “inactive”.

LMFSMRTDRSMCGKDPLKRA: the amyloid nucleation score entry is “inactive”.

Take GKDVSVGEVFKPLVSVRRVN: the amyloid nucleation score result was “inactive”.

As for VLVMISSWNYLMCIFFCINV, the amyloid nucleation score entry is “inactive”.

Take RYEVPGTSFLNM: the amyloid nucleation score entry is “inactive”.

In turn, TILWGLQTQTQNCVVWKLGR gave an amyloid nucleation score of 1.69 ± 0.12.

Turning to RHKWLFMWGCFHFNKCASH, the amyloid nucleation score entry was “inactive”.

As for VNKFNFNIVIFSNWNMYQ, the amyloid nucleation score worked out at 3.36 ± 0.062.

As to ELVVTNVNGFLMW, the amyloid nucleation score result is “inactive”.

As for YHDLKNATHVV, the amyloid nucleation score result is “inactive”.

As for ERSFAYDYDCSVCFTHAFAT, the amyloid nucleation score result is “inactive”.

Consider IGLLYLHLPNIALINRSVVG, for which the amyloid nucleation score result is “inactive”.

With YGREMRSSMMNGGYLIIMKW, the amyloid nucleation score result was “inactive”.

Regarding KPCVTFSHSAIRISVTWSTN, the amyloid nucleation score was -0.079 ± 0.38.

For SSVSSMRRSHYETMMGRTVG, the amyloid nucleation score entry was “inactive”.

With RSCMQLVCTCPFTGTTSRMI, the amyloid nucleation score is 2.63 ± 0.055.

SKDGSSSTRQVTIVGRVLVF: the amyloid nucleation score result was “inactive”.

Regarding ESPNGFFGSMDVCVLPRGSV, the amyloid nucleation score entry is “inactive”.

For the substance LNHYECSW, the amyloid nucleation score entry was “inactive”.

Take WTRESLQYTGNSYGALSTFF: the amyloid nucleation score entry is “inactive”.

WGSGY: the amyloid nucleation score result was “inactive”.

Turning to LLLFRKRLMLPRVLQQVPRH, the amyloid nucleation score result is “inactive”.

Consider TDVRFDRLTCCNSLIKITRW, for which the amyloid nucleation score worked out at 1.14 ± 0.082.

Turning to YARVMSVAMSWEDQNSTKKR, the amyloid nucleation score amounted to 0.467 ± 0.19.
